Laboratory results as given in a protein production outcome set (Wang et al. 2014).

Test: label from the status in PepcDB records

## MDDWEDEKIAPLPAKVELKSNWDDEDVDENEIKDSWEDDDDEPAQPPVINPAPEKAPKKAAPKTVEKKGKAVEVPKEAPKEKPLDPIAEKLRQQRLVEEADYRATAELFGVKDDDKNLDMFIPKSESDFLEYAEMISHRIKPYEKSYHYIALLKTIMRLSLTNMKAADVKDVASSITTIANEKLKAEKEAAAGKKKGGKKKQLIVDKANDDLVAGPYDAMDDFDFM
  protein production: failed

## MDEIKIEKLKKLDKKALNELIDVYMSGYEGLEEYGGEGRDYARNYIKWCWKKASDGFFVAKVGDKIVGFIVCDKDWFSKYEGRIVGAIHEFVVDKKFQGKGIGRKLLITCLDFLGKYNDTIELWVGEKNYGAMNLYEKFGFKKVGKSGIWVRMIKRQNL
  protein production: not failed

## MDEILARAGIFQGVEPSAIAALTKQLQPVDFPRGHTVFAEGEPGDRLYIIISGKVKIGRRAPDGRENLLTIMGPSDMFGELSIFDPGPRTSSATTITEVRAVSMDRDALRSWIADRPEISEQLLRVLARRLRRTNNNLADLIFTDVPGRVAKQLLQLAQRFGTQEGGALRVTHDLTQEEIAQLVGASRETVNKALADFAHRGWIRLEGKSVLISDSERLARRAR
  protein production: not failed

## MDEKKIPRSLQAIIAQVKAHYADDQELQTLFEQCFLNTYLTTIQEDEQGTFVVTGDIPAMWLRDSSAQVRPYLTVVKEDADMARMIKGVIERQWRYILHDPYANAFNQTANKQGHQQDRTEMSPLVWERKYELDSLCYPIQLAYLYWKATGDDSVLQPTLKQVLETIYRIWKIEQDHEAKSSYSFERDDCRVSDTLLRKGKGGYSVPTGMTWSGFRPSDDACLYGYLIPANMFAVVVSNYAVELLTAMEEIKLAEEFRELEADIRQGIGQYGKMDHPVYGEIYVYETDGNGRVNLMDDANVPSLLAIPYLGYTTADDPVYQNTRRFILSRDNPYYYEGSYAKGVGSPHTPDHYVWHISLAIQGMTAIDSKEKKQIVAMFKQTHADTYFMHEGFDVDRPEQYTRSWFAWANSMFSEFLLSEAGIYVPGSPLENMKNNKAGDRHVLSTGKAAKPNQ
  protein production: failed

## MDELFTESAKAVLAIAQEEAKYFRHQSVGSEHLLLALVLEPNGIAGKTLRQLNTDTEDIREEIEHLSGYGTMQSPMGNNNLYLPYSPRAKQIFAYAGDEAKRLGAQKIGTEHLLLGLLRDEEILASRILVNLGLSLSKMRQLLLKKMG
  protein production: not failed

## MDELRELLKGEQQGIKILKEVLKKAKEGDEQELARLNQEIVKGEKQGVKVYKEAAEKARNPEKRQVIDKILEDEEKHIEWHKAASKQGNAEQFASLVQQHLQDEQRHVEEIEKKNLEHHHHHH
  protein production: not failed

## MDETEHMPRYTLTLVDSTGAMEPLILMDDDLKSIAAKLEGRVSAKTRGRRPRGTGGISATPKGYRAYSTVTDPLTGKDHRVSGFGRTRSQAEARLKEKLAEFDRTHRVGYVRPPTVAEWMDHWLTDVCKPRLKPRTWGTYASVIANNIVPSIGAVRLDELKPAHFRRMERYVMDEQGKSSGTAGSAWRTLHKALEDAVLEGVIERNPAVKGTAPRVALKERAALTPEQAADLIAAETDDTWRLMWMLAFMTGMRQGERLGLTEDELRRDGDRLIILVEWQAQHLTKREVEGLPKGVECTPLGNGMYRTRPKTEKGRRAIPLPEALADQLLAYIERHGVNGDGLVFHDDRGLPLTGCVERRRWYRALDRVGLGHEYVPHSARHTTATILNRLGLDDVTRTAIMGHSRVSTTNEIYTHVELDRLVAATDGVERAIEG
  protein production: failed

## MDETGNLTVSSATCHDTIDDFRNQVYSTLYSMISVVGFFGNGFVLYVLIKTYHKKSAFQVYMINLAVADLLCVCTLPLRVVYYVHKGIWLFGDFLCRLSTYALYVNLYCSIFFMTAMSFFRCIAIVFPVQNINLVTQKKARFVCVGIWIFVILTSSPFLMAKPQKDEKNNTKCFEPPQDNQTKNHVLVLHYVSLFVGFIIPFVIIIVCYTMIILTLLKKSMKKNLSSHKKAIGMIMVVTAAFLVSFMPYHIQRTIHLHFLHNETKPCDSVLRMQKSVVITLSLAASNCCFDPLLYFFSGGNFRKRLSTFRKHSLSSVTYVPRKKASLPEKGEEICKV
  protein production: failed

## MDEVLKEILSSYQKRALKLTKRVRKKIFKNDPTENQKKAIKIALNTPDIAIIQGPPGTGKTTVINAICERLFEEYPKDKNIKGQILLCAQGHDATNNARERIKVGGLPTFKFGAKKNAKEEQYKQDERLNERLREFAETLIESVRKKLQKLGDYENIEKILDLEEALRRYYSSPISELEFLKEIEKNESFF
  protein production: failed

## MDFDYTIKALKTKKKLDAKPNTHTDFVYTTKALRSRKKLDTKPNIHTDFGYAIKAWRSKKKLDIVLESNMTRYMCMIEYKN
  protein production: failed

## MDFKSSDAIRGPRTEDHLPHTAQAAVKIVIVGGFGVGKTTMVGSVSEIRPLTTEETMTQMGIGVDDNYGSESKTATTVAMDFGRISITEQLVLYLFGTPGQERFWFLWNGLFEGALGAVVLIDTRRLEVSFDVIGRLEERGVPFVIAVNDFPDAPRYPVEDLRGALDLTEDIPIVKCDARRRASSREVLMTLMHFLHSLAVSKTSVLEHHHHHH
  protein production: failed

## MDFLTKLAIAFLIGIMVGVEREHRGLEHEIFAGVRSYSITCITGMLVALASESIGTGFVYVSTLFFAAMCSIITYSKIFLFKRIGVTSPITLFFIFVMGVLVGYDYGLFAIVSSIVVAFLLIQKQPLHQFAGNLTKEELYNAIQFLAVAFILYPVMPEKQFFGLLNLRYAILIVILVSLISFSSYVLLRKFGTKRGLYYSGFLGGFINSEATTGALAGLSKKAEEMAAPVITGILLCNISMLIRNLVLAFIVDPTGRTTMLMLLPQLVLIIVSIGMAYRHSKKVCPIGGGELKIQSPFSLGQAFKFGIAFTLILVIGNFAYNAAGTTGIYLTALGALVSSSGVIVSVTLLAVSGNISYEVAANTAVIASLVSTVNKILLSKISGSSSLFSLAIKDFGIIAATGTLALVILNFL
  protein production: failed

## MDGATLAEVMRQRGINMRYLGKVLDLVLRSPARDQLDHIYKIGIGELITRSAKHIFKTYLQGVELSGLSAAISHFLNCFLSSYPNPVAHLPADELLSKKRNKRRKNRPPGAADNTAWAVMTPQELWKNICHEAKNYFDFTLECDSVDQAVETYGLQKITLLREISLKTGIQILLKEYSFDSRHKPAFTEEDVLNIFPVVKHVNPKASDAFHFFQSGQAKVQQGFLKEGCELINEALNLFNNVYGAMHVEICACLRLLARLHYIMGDYAEALSNQQKAVLMSERVMGIEHPNTIQEYMHLALYCFASSQLSTALSLLYRARYLMLLVFGEDHPEMALLDNNIGLVLHGVMEYDLSLRFLENALAVTTKYHGPKALKVALSHHLVARVYESKAEFRSALQHEKEGYTIYKTQLGEDHEKTKESSEYLKCLTQQAVALQRTMNEIYRNGSSANIPPLKFTAPSMTSVLEQLNVINGILFIPLSQKDLENLKAEVARRHQLQEANRNRDKAEEQPMAPEPEPEPEPERAVEDMGSPQTAKEGPSSLNLQG
  protein production: failed

## MDGLHVSIVSVALFIILFVIFVFLGFYGSRWRRGDLSKLHEWALAGRRLGPYLMWFLLTADLYTAYTFIAVPSLVLASGPVGFFAAFYSAVTPFIALLFMPRLWTIAKNRGYVTAADFIKDRFNSRILAGLVAITGVVAELPYIALQIVGMQVALLILLLGLGVSNITLASDLSLLVAFIILAAFVFTSGLRGAALTAVYKDIIILGTIISIAIYVPLAFGGFSGAFHNAQTLSSQINLALNNVNKPIFYNYLPNTLAARTAYISLAIGSAFALYLYPHAVNASVSSDSKKSLKLSLALQPFYSIILAVIALFGILVYANSKVVNFIAKTHSGAVAVPALIGYSMPDWFVGIALLGIFIGGLVPAAIMAIGAANLLTRNIIKEFKPNMSPSTESALAKWISTAFKFLALALVFATPSTYAIQLQLLGGIIILQTLPSVFLGLYTSKLNGYALVGGWAGGMFSGIYLTLLANHFGPLKTSSFITPLGPMYIGVLSTLINLAIGLIGTAIAYGAGWRPVSNIRAEEIA
  protein production: failed

## MDGLIPMALKAVKKNLTRRRYERLSYSATTRESYDFASDIEMNVDGRHHRRGWSVGDFSSLSSRETKRNGGVAPEKSLTPPREGQLVRFKSHRLFSCISGQ
  protein production: failed

## MDGVYVLSVKEDVPAAGILHAGDLITEIDGQSFKSSQEFIDYIHSKKVGDTVKIKYKHGNKNEEASIKLTAIDKKGTPGIGITLVDDLEHHHHHH
  protein production: failed
